Results as given in article PMC1318456.

Biological target: Non-muscle actin (99% pure; 80% β-actin, 20% γ-actin), polymerized (UniProt P60709)
Experiment: co-sedimentation; actin filaments first bundled with α-actinin for 30 min at room temperature, CRP1 then added for a further 30 min, 10,000 x g; supernatant and pellet on gel, Gelcode Blue

fold increase of α-actinin in the actin bundles with CRP1 added, against without CRP1: 2 fold
Substance: α-actinin purified from chicken gizzard (from UniProt P05094 1-893) (natural protein)
